In patent publication US20150110787A1 (SAMSUNG ELECTRONICS, published 2015):
Values belong to the binder of their own block, whether it stands above or below them.

Experiments:
[1] = target: T1, human VEGF-C polypeptide (R&D Systems; Accession # P49767) (human, UniProt P49767 103-227, limits assumed); experiment: ELISA on coated human VEGF-C (1 ug/ml), anti-HA-HRP detection; 50% binding concentration, given as Kd
T1 construct: Bought protein; also called hVEGF-C; Recombinant VEGF-C protein (R&D Systems)
T1 sequence (looked up): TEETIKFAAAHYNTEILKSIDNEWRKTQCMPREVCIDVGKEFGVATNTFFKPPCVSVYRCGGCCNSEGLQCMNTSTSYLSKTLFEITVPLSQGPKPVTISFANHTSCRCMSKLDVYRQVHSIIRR
Protocol: ELISA for verifying the binding affinity of the anti-VEGF-C antibody in scFv form purified in Example 2 to its antigen was carried out. MaxiSorp™ flat-bottom plate (Nunc) of 96-wells was coated with 1 μg/ml of human VEGF-C(R&D Systems) for 16 hours. The plate was then washed 5 times with phosphate buffer saline (PBS) supplemented with 0.05%(v/v) Tween-20, and then blocked with PBS supplemented with 1%(v/v) bovine serum albumin (BSA; Sigma) at room temperature for 2 hours. The anti-VEGF-C antibody in scFv form purified in Example 2 was added to each well of the plate and was incubated at room temperature for 2 hours.
The plate was washed 5 times with PBS supplemented with 0.05% (v/v) Tween-20. HRP-conjugated anti-HA antibody (HA-probe Antibody (F-7) HRP conjugated) (Santacruz) diluted with PBS supplemented with 1%(v/v) BSA was added at the dilution ratio of 1:1,000 (v/v) and was incubated at room temperature for 1 hour. The reacted well was washed 5 times with PBS supplemented with 0.1%(v/v) Tween-20. Finally, tetramethylbenzidine (TMB) substrate (Cell Signal) was added to each well of the plate at the amount of 100 μl to induce coloring reaction at room temperature for 3 minutes. Then, the reaction was stopped with 50 μl of 5N H₂SO₄ solution, and OD450 value was measured on plate reader (Molecular Devices).

[2] = target: T2, FLAG-tagged human VEGF-C (Accession # P49767) (human, UniProt P49767 112-227, limits assumed); experiment: competitive ELISA: human VEGR-R3-Fc coated, 200 ng/ml FLAG-tagged human VEGF-C plus scFv (1-1000 nM), anti-FLAG-HRP; competitor VEGR-R3-Fc
T2 construct: not shown: FLAG tag
T2 sequence (looked up): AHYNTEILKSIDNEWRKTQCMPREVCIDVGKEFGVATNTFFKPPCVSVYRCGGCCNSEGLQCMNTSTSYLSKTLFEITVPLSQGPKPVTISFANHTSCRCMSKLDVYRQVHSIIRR
Protocol: To examine the effect of the anti-VEGF-C antibody purified in Example 2 on the inhibition of VEGF-C:VEGR-R3 binding, a competitive ELISA, which is used for verification of molecular interaction, was performed. MaxiSorp™ flat-bottom plate (Nunc) of 96-wells was coated with […] of human VEGR-R3-Fc (R&D Systems. Accession No. P35916) which is a fusion protein composed of human VEGR-R3 and Fc of human IgG1. Thereafter, the plate was washed 5 times with phosphate buffer saline (PBS) supplemented with 0.05%(v/v) Tween-20, and then blocked with PBS supplemented with 1%(v/v) bovine serum albumin (BSA; Sigma) at room temperature for 2 hours.
To perform the VEGF-C:VEGR-R3 neutralization ELISA, the anti-VEGF-C antibody (concentration: 1 nM, 10 nM, 100 nM, or 1000 nM) purified in Example 2 was added to each well coated with the human VEGR-R3-Fc, together with a mixture of 1%(v/v) BSA and 200 ng/ml of FLAG-tagged human VEGF-C (Accession # P49767), and incubated at room temperature for 2 hours. Thereafter, the plate was washed 5 times with PBS supplemented with 0.05% (v/v) Tween-20. […] Then, the reaction was stopped by addition of 50 μl of 5N H₂SO₄ solution, and OD450 value was measured using plate reader (Molecular Devices).

[3] = target: T1, human VEGF-C polypeptide (R&D Systems; …); experiment: SPR, BIAcore T100; antibody captured on anti-human Fc antibody on a CM5 chip, recombinant VEGF-C flowed from 200 nM
Protocol: To accurately measure the affinity of the anti-VEGF-C antibody to its antigen, VEGF-C, Surface Plasmon Resonance (SPR) method was conducted using BIAcore T100 (GE Healthcare). The SPR method is based on a principle that the refractive index of light passing through a sensor chip varied depending on the condition of the substance coated on the sensor chip. If an antibody or an antigen is flowed on the chip which is coated with an antigen or an antibody, the binding between the antigen and the antibody leads to change in refractive index, and Kd value can be calculated based on the refractive index.
25 μg/ml of anti-human Fc antibody (Sigma) was fixed on CM5 sensor chip (GE Healthcare) using pH 5.0 sodium acetate solution and amine coupling kit (GE Healthcare). 2 μg/ml of the anti-VEGF-C antibody obtained in Example 2 was added on the chip to be captured.
Recombinant VEGF-C protein (R&D Systems) was serially diluted with HBS-P (GE-Health) solution starting from the concentration of 200 nM and flowed on the chip, leading to binding (on) to and dissociating (off) from the antibody, thereby measuring the antigen-antibody affinity.

[4] = target: T2, FLAG-tagged human VEGF-C (Accession # …); experiment: competitive ELISA: human VEGR-R3-Fc coated, 200 ng/ml FLAG-tagged human VEGF-C plus IgG (1-1000 nM), anti-FLAG-HRP; competitor VEGR-R3-Fc
Protocol: MaxiSorp™ flat-bottom plate (Nunc) of 96-wells was coated with […] of human VEGR-R3-Fc (R&D Systems. Accession No. P35916) which is a protein produced by coupling human VEGR-R3 with Fc of human IgG1. Thereafter, the plate was washed 5 times with phosphate buffer saline (PBS) supplemented with 0.05%(v/v) Tween-20, and then blocked with PBS supplemented with 1%(v/v) bovine serum albumin (BSA; Sigma) at room temperature for 2 hours.
For performing the VEGF-R3:VEGF-C neutralization ELISA, the anti-VEGF-C antibody (concentration: 1 nM, 10 nM, 100 nM, or 1000 nM) in IgG form purified in Example 6 was added to each well of the human VEGR-R3-Fc coated plate, together with a mixture of 1%(v/v) BSA and 200 ng/ml of FLAG-tagged human VEGF-C (Accession # P49767), and then, the plate was reacted at room temperature for 2 hours. Thereafter, the plate was washed 5 times with PBS supplemented with 0.05% (v/v) Tween-20. HRP-conjugated anti-FLAG antibody (SIGMA) was diluted with PBS supplemented with 1%(v/v) BSA at the dilution ratio of 1:5,000 (v/v), and added to each well in the amount of 100 μl, to react at room temperature for 1 hour. The reacted well was washed 5 times with PBS supplemented with 0.1%(v/v) Tween-20. […] Then, the reaction was stopped with 50 μl of 5N H₂SO₄ solution, and OD450 value was measured on plate reader (Molecular Devices).

Kd [1]: 26.2 nM
IC50 [2]: 33.4 nM
Kd [3]: 0.345 nM
koff [3]: 0.00258 s⁻¹
kon [3]: 7.45e+06 M⁻¹ s⁻¹
B1: SAIT-VEGFC-AB-4A2, anti-VEGF-C antibody in scFv form purified in Example 2 (scFv, V domains shown)
VH: EVQLLESGGGLVQPGGSLRLSCAASGFTFSSYDMSWVRQAPGKGLEWVSAISYDNGSTYYADSVKGRFTISRDNSKNTLYLQMNSLRAEDTAVYYCARDPYLARLNTFDYWGQGTLVTVSS
VL: QSVLTQPPSASGTPGQRVTISCSGSSSNIGSNNVSWYQQLPGTAPKLLIYYNSHRPSGVPDRFSGSKSGTSASLAISGLRSEDEADYYCATWDSSLNGYVFGGGTKLTVL
notes: Expressed in the E. coli periplasm and partially purified on Ni-NTA; also called anti-VEGF-C scFv antibody

IC50 [4]: 9.2 nM
B2: SAIT-VEGFC-AB-4A2, anti-VEGF-C antibody in IgG form purified in Example 6 (antibody, V domains shown)
VH: B1 VH
VL: QSVLTQPPSASGTPGQRVTISCSGSSSNIGSNNVSWYQQLPGTAPKLLIYYNSHRPSGVPDRFSGSKSGTSASLAISGLRSEDEADYYCATWDSSLNGYVFGGGTKLT
notes: VH was cloned into pOPTI-VAC, which carries the human IgG1 constant region and Fc; Expressed in 293-F cells and purified on Protein A
